For five substances, Km of degradation by 1 uM ClpC1P1P2, loss of GFP fluorescence, Michaelis-Menten analysis, Km of degradation by ClpC1P1P2, loss of GFP fluorescence, Michaelis-Menten analysis and degradation of 10 uM MSMEI 3879 by 1 uM ClpC1 and 1 uM ClpP1P2 in vitro, SDS-PAGE densitometry, protein hydrolyzed within 40 min results are on record in paper PMC10433963.

Experiment [1] addresses ^H7-SUMOClpC1^FLAG (recombinant ClpC1) (M. smegmatis) (UniProt A0R574).
For experiment [2] the target is unchanged. The source holds these as a separate data set.

Sequence of ^H7-SUMOClpC1^FLAG (recombinant ClpC1) (M. smegmatis) (A0R574 whole entry): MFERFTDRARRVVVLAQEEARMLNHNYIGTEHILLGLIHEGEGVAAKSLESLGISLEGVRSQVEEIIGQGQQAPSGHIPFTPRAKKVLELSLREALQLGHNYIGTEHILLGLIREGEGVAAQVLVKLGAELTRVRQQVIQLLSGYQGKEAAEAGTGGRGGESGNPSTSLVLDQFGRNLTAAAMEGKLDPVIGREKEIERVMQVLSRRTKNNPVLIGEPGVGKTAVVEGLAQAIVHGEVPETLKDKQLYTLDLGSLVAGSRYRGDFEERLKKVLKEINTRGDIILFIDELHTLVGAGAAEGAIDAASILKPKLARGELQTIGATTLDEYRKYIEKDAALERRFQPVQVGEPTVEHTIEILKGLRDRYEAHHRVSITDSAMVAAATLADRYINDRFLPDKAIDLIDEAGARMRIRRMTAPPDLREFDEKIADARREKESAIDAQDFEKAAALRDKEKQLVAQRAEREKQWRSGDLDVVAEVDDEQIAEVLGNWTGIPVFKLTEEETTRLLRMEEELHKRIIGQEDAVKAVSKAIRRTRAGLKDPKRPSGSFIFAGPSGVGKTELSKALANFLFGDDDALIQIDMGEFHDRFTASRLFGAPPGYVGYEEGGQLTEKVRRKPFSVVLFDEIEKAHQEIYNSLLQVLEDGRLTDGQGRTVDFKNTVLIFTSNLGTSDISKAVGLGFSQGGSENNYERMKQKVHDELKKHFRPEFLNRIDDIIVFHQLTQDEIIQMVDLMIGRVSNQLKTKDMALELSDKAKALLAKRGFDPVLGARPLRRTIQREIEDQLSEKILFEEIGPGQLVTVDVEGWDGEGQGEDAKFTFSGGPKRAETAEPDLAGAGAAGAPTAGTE

Consider “GFP^MSMEI_3879 (MSMEI_3879 fused to the C terminus of GFP)”, for which the Km of degradation by 1 uM ClpC1P1P2, loss of GFP fluorescence, Michaelis-Menten analysis in experiment [1] was determined as 18.8 µM. On the same count and under the same terms, then “^MSMEI_3879GFP (MSMEI_3879 fused to the N terminus of GFP)”, with 2.06 µM. For the substance “GFP preceded by the first 13 residues of MSMEI_3879”, in experiment [1], the Km of degradation by ClpC1P1P2, loss of GFP fluorescence, Michaelis-Menten analysis turned out to be 19.1 µM. On to “MSMEI_3879 (recombinant) (natural protein)”, for which the degradation of 10 uM MSMEI 3879 by 1 uM ClpC1 and 1 uM ClpP1P2 in vitro, SDS-PAGE densitometry, protein hydrolyzed within 40 min in experiment [2] stood at 75%. For the substance “GFP appended with the last 13 residues of MSMEI_3879”, the Km of degradation by ClpC1P1P2, loss of GFP fluorescence, Michaelis-Menten analysis in experiment [1] is 5.97 µM.
